This data set has as its system histone 2B. As to the kind of experiment: Kinase activity measurement (histone 2B phosphorylation, [33P]ATP flashplate). Format: biochemical. The procedure:
Another possibility of detecting the enzymic activity of Akt is that of incubating 100 ng of Akt, at 30° C. for 80 min, with 100 ng of histone 2B in a buffer composed of 50 mM Hepes (pH 7.5), 3 mM MgCl2 and 3 mM MnCl2, 3 μM sodium vanadate, 1 mM DTT, 1% DMSO, 100 nM ATP and 0.16 nM [^33P]-ATP. After stopping the reaction with phosphoric acid and washing with water, the incorporated cpm [counts per minute] are then determined, in a flashplate (NEN) in a Wallac Trilux measuring instrument, as a measure of the phosphorylation of the histone 2B. In this measuring instrument, the quantity of light which was generated from the radioactive decay by the scintillation gel present in the wells is measured quantitatively. It is a direct measure of the degree of phosphorylation of the Akt substrate employed.
In order to measure the kinase activity of truncated Akt1 (Akt1ΔPH) as well as of native Akt1, in each case 100 ng of Akt were incubated, at 30° C. for 80 min, with 100 ng of histone 2B in a buffer comprising 50 mM Hepes, pH 7.5, 3 mM MgCl2 and 3 mM MnCl2, 3 μM sodium vanadate, 1 mM DTT, 1% DMSO, 100 nM ATP and 0.16 nM [^33P]ATP. After the reaction had been stopped with phosphoric acid and the wells had been washed with water, the incorporated […], in a Wallac Trilux measuring instrument, as a measure of the histone 2B phosphorylation. In this measuring instrument, the quantity of light which was generated from the radioactive decay by the scintillation gel which was present in the wells was measured quantitatively. It is a direct measure of the degree of the phosphorylation of the Akt substrate employed.
Commercially obtainable wild-type Akt1 protein (Upstate Biochemicals, Charlottsville, Va., USA), which was likewise expressed in SF9 cells using the baculovirus system and then purified, was also used (results of the activity measurement in FIG. 1a, left-hand column).
The activity of an Akt derivative, which was expressed using the present method and obtained as an active kinase derivative, was compared with the activity of a commercially obtainable Akt1 enzyme (Upstate, Charlottsville, Va., USA). The activity of the commercially obtainable enzyme was obtained by expressing the enzyme, which contained the PH domain, in the baculovirus system and then purifying it. The enzyme was subsequently incubated with PDK1 in the presence of phosphatidylinositol […] lipid vesicles in order to phosphorylate Akt1 at threonine 308. After that, the activated Akt enzyme was separated chromatographically in order to separate it off from the activating PDK1 kinase. The enzyme activities of the two kinases were measured as described in Ex. 4.

Setting [1] is: FIG. 1a, 100 ng Akt, 100 ng histone 2B, 30° C., 80 min, expressed in SF9 cells.

B1: PDK1-activated Akt1ΔPH: truncated Akt1 protein (amino acids 107-481, GST tag) without PH domain, activated by coexpression with truncated PDK1 in SF9 cells (protein)
chain: ADGLKKQEEEEMDFRSGSPSDNSGAEEMEVSLAKPKHRVTMNEFEYLKLLGKGTFGKVILVKEKATGRYYAMKILKKEVIVAKDEVAHTLTENRVLQNSRHPFLTALKYSFQTHDRLCFVMEYANGGELFFHLSRERVFSEDRARFYGAEIVSALDYLHSEKNVVYRDLKLENLMLDKDGHIKITDFGLCKEGIKDGATMKTFCGTPEYLAPEVLEDNDYGRAVDWWGLGVVMYEMMCGRLPFYNQDHEKLFELILMEEIRFPRTLGPEAKSLLSGLLKKDPKQRLGGGSEDAKEIMQHRFFAGIVWQHVYEKKLSPPFKPQVTSETDTRYFDEEFTAQMITITPPDQDDSMECVDSERRPHFPQFSYSASGTA
modifications: phosphorylated at threonine 308 and serine 473, as the filing says of the active form
Regarding B1, the “kinase activity compared with commercially obtainable native Akt1 activated by subsequent phosphorylation by PDK1 in the presence of lipid vesicles” value (Ex. 5, measured as described in Ex. 4) is on record as “at least the same activity”. Under setting [1], the “kinase activity (histone 2B phosphorylation) compared with Akt1ΔPH not activated by coinfection with PDK1-encoding baculoviruses” value is “markedly higher activity”; the “kinase activity (histone 2B phosphorylation) compared with Akt kinase derivative containing the PH domain with threonine 308 and serine 473 replaced with aspartic acid” value is listed as “markedly higher activity”. The “kinase activity (histone 2B phosphorylation) compared with commercially obtainable wild-type Akt1 not activated by coinfection with PDK1-encoding baculoviruses” value (FIG. 1b, Ex. 4b, measured as in Ex. 4a) was “markedly higher activity”.

(Values after patent US20070212341A1, “Method for Preparing Active Kinases Containing Ph Domains” (priority 2004, published 2007).)
